Experimental data taken from PMC9992855, “Functional polyamine metabolic enzymes and pathways encoded by the virosphere” (Proceedings of the National Academy of Sciences of the …, 2023).

Substrate: CC(=O)NCCCNCCCCN
Test: colorimetric acetate release
Format: biochemical, Mycoplana ramosa
Settings: 26 °C
From the text: colorimetric acetate release on M. ramosa APAH

B1: M. ramosa APAH (Mycoplana ramosa) (protein)
chain: MRVIFSEDHKLRNAKTELYGGELVPPFEAPFRAEWILAAVKEAGFDDVVAPARHGLETVLKVHDAGYLNFLETAWDRWKAAGYKGEAIATSFPVRRTSPRIPTDIEGQIGYYCNAAETAISPGTWEAALSSMASAIDGADLIAAGHKAAFSLCRPPGHHAGIDMFGGYCFINNAAVAAQRLLDKGAKKIAILDVDFHHGNGTQDIFYERGDVFFASLHGDPAEAFPHFLGYAEETGKGAGAGTTANYPMGRGTPYSVWGEALTDSLKRIAAFGAEAIVVSLGVDTFEQDPISFFKLTSPDYITMGRTIAASGVPLLVVMEGGYGVPEIGLNVANVLKGVAG
notes: 341 aa; positive comparative control enzyme
Km: 630 ± 40 µM
kcat: 5.8 ± 0.14 s⁻¹
kcat/Km: 9300 ± 450 M⁻¹ s⁻¹
